Among the data in PMC11485048 are conjugation efficiency (%) values, retold here.

Experiment [1] concerns the target SpyTag-noro-VLP (norovirus-like particle of the capsid protein VP1 with a C-terminally fused SpyTag) (norovirus (genotype not stated)). In words: covalent SpyCatcher/SpyTag conjugation read by SDS-PAGE densitometry; SpyCatcher-P domain conjugated on SpyTag-noro-VLP as in the first experiment; nonconjugated antigen removed by size-exclusion chromatography (HiPrep 16/60 Sephacryl S-500 HR); second immunization experiment.

Experiment [2] shares this target. In words: covalent SpyCatcher/SpyTag conjugation read by SDS-PAGE densitometry; SpyCatcher-antigen mixed with SpyTag-noro-VLP at 2:1 (P domain) or 4:1 (peptides) molar ratio, about 40 hours at +4 °C; unreacted SpyCatcher-antigen removed by dialysis through a 1000 kDa cut-off membrane; first immunization experiment.

Take “SpyCatcher-P domain fusion (furin P domain, residues 444-576) (from UniProt P09958 444-576)”: the conjugation efficiency (%) in experiment [1] was 5%; in experiment [2], 20%.
